This passage reports Km and kcat results from article PMC3812244, “Organophosphate and Pyrethroid Hydrolase Activities of Mutant Esterases from the Cotton Bollworm Helicoverpa armigera” (PLoS ONE, 2013).

Holding throughout (experiment): spectrophotometric esterase kinetics, active-site titrated enzyme
Holding throughout (conditions): wild-type values collected contemporaneously, also reported in Teese et al. [32]

The subject of data set [1] is CC(=O)Oc1cccc2ccccc12. Format: biochemical, Lucilia cuprina. The source says: spectrophotometric esterase kinetics, active-site titrated enzyme on E3
Data set [2] relates to T1, 001b (CCE-001b).
T1 construct: gene CCE001b; untagged, baculovirus expressed in Sf9 cells; titrated active sites
Format: biochemical, Helicoverpa armigera.

For data set [3], the system named is T2, 001f (CCE-001f).
T2 construct: gene CCE001f; untagged, baculovirus expressed in Sf9 cells; titrated active sites
The format is biochemical, Helicoverpa armigera.

Consider E3 (Lucilia cuprina), for which, in data set [1], the Km was 88 (10) µM and the kcat is reported as 1399 (70) sec^-1.
In the case of `CC(=O)Oc1cccc2ccccc12` [1-naphthyl acetate], the Km is 199 µM in data set [2] and 4 µM in data set [3].
